In this assay the target is T. spiralis E/S antigen.

B1: Anti-[TRISP][B7] (antibody, V domains shown)
VH: AVTLDESGGGLQTPRGGLSLVCKASGYTFSSHNMAWVRQAPGKGLEFVAGISNTGSFTLYGAAVKGRATISRDNGQSTVRLQLNNLRAEDTGTYYCAKHAGVGLYSIDAWGHGTEVIVSS
VL: ALTQPSSVSANLGGTVKITCSGGTSDYGWYQQKAPGSAPVTLIYDNTNRPSDIPSRFSGSLSGSTNTLTITGVQAEDEAVYFCGSADRTYAGVFGAGTTLTVL
Molecule B1 displayed a detection limit of 6 ng/mL.

B2: Anti-[TRISP][C9] (antibody, V domains shown)
VH: AVTLDESGGGLQTPGGALSLVCKASGFSISSYSMQWVRQAPGKGLEWVAGIYYDGNTWYAPAVKGRATISRDNGQSTVRLRLNNLRAEDTATYFCAKYAGGYSIDAWGHGTEVIVSS
VL: ALTQPSSVSANPGETVKITCSGSSGSYGWYQQKSPGSGPVTVIYYNDKRPSDIPSRFSGSASGSTATLTITGVQAEDEAVYFCGGYDSSTYVGIFGAGTTLTVL
The molecule B2 showed a detection limit of 6 ng/mL.

Values taken from EP3502685A1.
